The nature of this data set: melting temperature; melt of duplexes. Conditions: sodium 0.0675 M; strand 1 µM.
As to “CGACGTGCTTAATGTGCTG+CAGCACATAATGCACGTCG ((((((((.(.((((((((+)))))))).).))))))))”, the Tm worked out at 51.5 °C. For “CGACGTGCCGTATGTGCTG+CAGCACATACGGCACGTCG (((((((((((((((((((+)))))))))))))))))))”, the midpoint of thermal melting (Tm) turned out to be 66.2 °C.

For the substance “CGACGTGCGTAATGTGCTG+CAGCACATCGTGCACGTCG ((((((((...((((((((+))))))))...))))))))”, the Tm is 44.3 °C. The same measure for “CGACGTGCAACATGTGCTG+CAGCACATTGGGCACGTCG ((((((((...((((((((+))))))))...))))))))”: 50.1 °C.

Regarding “CGACGTGCGCAATGTGCTG+CAGCACATGTAGCACGTCG ((((((((...((((((((+))))))))...))))))))”, the Tm was found to be 57.5 °C.

As for “CGACGTGCTCGATGTGCTG+CAGCACATGGTGCACGTCG ((((((((.(.((((((((+)))))))).).))))))))”, the Tm was 49.7 °C. For “CGACGTGCAAGATGTGCTG+CAGCACATTCAGCACGTCG ((((((((...((((((((+))))))))...))))))))”, the melting temperature (Tm) amounted to 50.7 °C. For “CGACGTGCGGCATGTGCTG+CAGCACATGCAGCACGTCG ((((((((.((((((((((+)))))))))).))))))))”, the Tm stood at 63.1 °C. As to “CGACGTGCGTTATGTGCTG+CAGCACATCAGGCACGTCG ((((((((.(.((((((((+)))))))).).))))))))”, the Tm stood at 49.9 °C.

Regarding “CGACGTGCAATATGTGCTG+CAGCACATCTCGCACGTCG ((((((((.(.((((((((+)))))))).).))))))))”, the Tm is 48.4 °C. For the substance “CGACGTGCGTCATGTGCTG+CAGCACATTCTGCACGTCG ((((((((...((((((((+))))))))...))))))))”, the Tm is 49.2 °C. Turning to “CGACGTGCTGAATGTGCTG+CAGCACATAATGCACGTCG ((((((((...((((((((+))))))))...))))))))”, the Tm amounted to 51 °C. As for “CGACGTGCGGTATGTGCTG+CAGCACATACAGCACGTCG ((((((((.((((((((((+)))))))))).))))))))”, the Tm is 59.5 °C. As for “CGACGTGCCTCATGTGCTG+CAGCACATCGAGCACGTCG ((((((((...((((((((+))))))))...))))))))”, the Tm turned out to be 50 °C. Take “CGACGTGCAATATGTGCTG+CAGCACATGACGCACGTCG ((((((((...((((((((+))))))))...))))))))”: the Tm was determined as 48.2 °C. As to “CGACGTGCGAGATGTGCTG+CAGCACATGCTGCACGTCG ((((((((...((((((((+))))))))...))))))))”, the Tm came to 50.4 °C. Under “CGACGTGCATCATGTGCTG+CAGCACATTGCGCACGTCG ((((((((...((((((((+))))))))...))))))))” stands 46.9 °C. Under “CGACGTGCCGAATGTGCTG+CAGCACATGCAGCACGTCG ((((((((.(.((((((((+)))))))).).))))))))” stands 52.6 °C; under “CGACGTGCAGTATGTGCTG+CAGCACATGAAGCACGTCG ((((((((...((((((((+))))))))...))))))))”, 50.5 °C. With “CGACGTGCGAAATGTGCTG+CAGCACATGCCGCACGTCG (((((((((..((((((((+))))))))..)))))))))”, the Tm worked out at 56 °C. As to “CGACGTGCAATATGTGCTG+CAGCACATCTAGCACGTCG ((((((((.(.((((((((+)))))))).).))))))))”, the melting temperature (Tm) was found to be 49.2 °C. For “CGACGTGCATGATGTGCTG+CAGCACATCATGCACGTCG (((((((((((((((((((+)))))))))))))))))))”, the Tm stood at 63.6 °C. For the substance “CGACGTGCCAGATGTGCTG+CAGCACATGAGGCACGTCG (((((((((..((((((((+))))))))..)))))))))”, the Tm was 55.4 °C. Under “CGACGTGCTCCATGTGCTG+CAGCACATCTTGCACGTCG ((((((((...((((((((+))))))))...))))))))” stands 47.2 °C.

As to “CGACGTGCATCATGTGCTG+CAGCACATGCTGCACGTCG (((((((((.(((((((((+))))))))).)))))))))”, the Tm worked out at 55.8 °C. As for “CGACGTGCATGATGTGCTG+CAGCACATAGGGCACGTCG ((((((((...((((((((+))))))))...))))))))”, the Tm is 50.1 °C. The same measure for “CGACGTGCCGGATGTGCTG+CAGCACATTGCGCACGTCG ((((((((...((((((((+))))))))...))))))))”: 49.9 °C; for “CGACGTGCACGATGTGCTG+CAGCACATTGCGCACGTCG ((((((((.(.((((((((+)))))))).).))))))))”: 52.1 °C. On to “CGACGTGCTATATGTGCTG+CAGCACATTTTGCACGTCG ((((((((.(.((((((((+)))))))).).))))))))”, for which the Tm worked out at 50.9 °C. On to “CGACGTGCAATATGTGCTG+CAGCACATCACGCACGTCG ((((((((...((((((((+))))))))...))))))))”, for which the Tm amounted to 46.8 °C. With “CGACGTGCCCGATGTGCTG+CAGCACATGCGGCACGTCG (((((((((..((((((((+))))))))..)))))))))”, the Tm stood at 54.6 °C. Take “CGACGTGCTGTATGTGCTG+CAGCACATCGGGCACGTCG ((((((((...((((((((+))))))))...))))))))”: the Tm amounted to 50.6 °C. Take “CGACGTGCAGTATGTGCTG+CAGCACATCAAGCACGTCG ((((((((...((((((((+))))))))...))))))))”: the Tm is 49.6 °C. Under “CGACGTGCCGGATGTGCTG+CAGCACATTTCGCACGTCG ((((((((...((((((((+))))))))...))))))))” stands 49.1 °C. “CGACGTGCATTATGTGCTG+CAGCACATCGCGCACGTCG ((((((((...((((((((+))))))))...))))))))”: the Tm stood at 45.8 °C. Regarding “CGACGTGCTATATGTGCTG+CAGCACATGTGGCACGTCG ((((((((.(.((((((((+)))))))).).))))))))”, the Tm turned out to be 53.6 °C. “CGACGTGCTATATGTGCTG+CAGCACATTGAGCACGTCG (((((((((..((((((((+))))))))..)))))))))”: the Tm is 52.9 °C. Consider “CGACGTGCAACATGTGCTG+CAGCACATGCTGCACGTCG (((((((((.(((((((((+))))))))).)))))))))”, for which the Tm was 56.9 °C. As to “CGACGTGCCCTATGTGCTG+CAGCACATCGTGCACGTCG ((((((((.(.((((((((+)))))))).).))))))))”, the Tm stood at 44.2 °C. As to “CGACGTGCGACATGTGCTG+CAGCACATCGTGCACGTCG ((((((((...((((((((+))))))))...))))))))”, the Tm amounted to 47.6 °C. On to “CGACGTGCATGATGTGCTG+CAGCACATCCGGCACGTCG ((((((((..(((((((((+)))))))))..))))))))”, for which the Tm amounted to 54.4 °C. On to “CGACGTGCTTTATGTGCTG+CAGCACATTTGGCACGTCG ((((((((...((((((((+))))))))...))))))))”, for which the midpoint of thermal melting (Tm) came to 50.1 °C. For the substance “CGACGTGCCGAATGTGCTG+CAGCACATTTCGCACGTCG ((((((((..(((((((((+)))))))))..))))))))”, the Tm amounted to 52.4 °C. For the substance “CGACGTGCTTCATGTGCTG+CAGCACATAGTGCACGTCG ((((((((...((((((((+))))))))...))))))))”, the Tm was 44.4 °C. The same measure for “CGACGTGCTAAATGTGCTG+CAGCACATGAGGCACGTCG ((((((((...((((((((+))))))))...))))))))”: 53.4 °C; for “CGACGTGCAACATGTGCTG+CAGCACATAGGGCACGTCG ((((((((...((((((((+))))))))...))))))))”: 49.1 °C; for “CGACGTGCTCCATGTGCTG+CAGCACATCATGCACGTCG ((((((((...((((((((+))))))))...))))))))”: 47.7 °C.

These data come from the array DNA melting data of Ke et al..
